Experiments:
[1] = molecular target: MPPT2 (proaerolysin with a uPA cleavage site in the activation sequence, an N-terminal AFAI antibody fragment and a His tag) (Aeromonas hydrophila); experiment: cell-based or functional assay
[2] = molecular target: MPPT3 (proaerolysin with a uPA cleavage site in the activation sequence, an AFAI antibody fragment attached by a uPA-cleavable linker, and a His tag) (Aeromonas hydrophila); experiment: cell-based or functional assay

**Q.** With “urokinase-type plasminogen activator (uPA) (enzyme)” as the substance, how does the Hemolytic activity after 60 minutes (horse red blood cells, after uPA digestion) (hemolytic titer (wells showing lysis)) [1] read?
**A.** 4.5

**Q.** And the Hemolytic activity after 60 minutes (horse red blood cells, after uPA digestion) (hemolytic titer (wells showing lysis)) [2]?
**A.** 8
